In the DeepSol protein solubility set:

Test: soluble on expression in E. coli; label from the status in PepcDB or PDB records

Row | Sequence | soluble on expression in E. coli
1 | MAHHHHHHMKAGGGLVALLAQTVVAGDVNACCGVLRRVFSETLQEDRRLTALASNAARSVRRRSHHSAGTAPSFATAPAAATKTLSSSASSSSLSSSSALATSSGPDDVVNFARYAQHQRAQAHSFANAAAQAVLRTSFVPPDGVRPLAVAAAGTKGHPTDAEVPQSHRASSAFGAPTDTPIAQRVWKLARSTLSTDSALVKTSSLHVLCHTAQRTGYWEEALHFCEYLPQSPAPLFLSSLLRPDNVNPILQHCATRGWALDVTNAIRVLAEEHGSWSAALVVAQDAEHRLPCGEAYSLGVLVPYLAVSGATAQARQLFESGLAHGALIDPVLVQQLVMQTATLRQWETCLHMLQCLYRTQETAQLLPADADFFCRLMEVSPGWVTSLQLLHMARASDVKPNERTVAILLTQCDQAGAWREAAAVYDMAVKEDFIDSLAVGSTYHTLVRSFSAIQQWQKALEALSWMSKADDASLTAGMMELVTLCEQSGQWEAALSVGSTLMDSGVHLLSTQTSMALLFLCAKGAQWEFAMRLFDAQLHDVRVDPHPLSLCAVMQACVAARQWEAALRVYDAAKASQPRMVVPPLAHRIAVKACVSAGKWNLAIAVLDATRQDGLPLDNYSQRLGLWAAAIQGQWELSLAFFQGIPRRSRTPQDRMMVRHVTRAISPAVDAIALRFLQSH | not soluble
2 | MIAEQHQAVVDSGASKKGAKVGFVSLGCPKNLVDSERILTQLRTEGYDVTNSYDDAELVIVNTCGFIDSAVQESLDTIGEALAANGKVLVTGCLGVKKDEIIELHPNVLGVTGPHAYDEVLAQVHEHVAKPEHNPFIDLVPPQGVKLTPKHYAYLKISEGCNHRCTFCIIPSMRGDLDSRPVGDVLGEAKRLVDSGVKELLVISQDTSAYGVDVKHKTDFWDGMPVKTHMQQLCEELAKQGVWIRLHYVYPYPHVDKIIPLMAEGKILPYLDIPFQHANKRILKLMKRPGSSDRVLERIAKWREICPELVIRSTFIVGFPGETEEEFEELLNFLEEAQLDRVGCFKYSPVEGATANALPDHVSDEVMEDRLQRFMAVQAKISSDKLQVRIGQEYLILVDEVNGLGIVGRSYMDAPEVDGKVYLSDDYDAKPGDQIWVQIIHADEHDVWGVRVED | soluble
3 | MRNHYMSMYDMRQFFKTYFSSASEKSILVKLLDKRFHPPSHTANILDLGCHDGALMKNIVNAYAKRLPEKLVITGVDPSLQAIKEYAKADFPIPVQTNTFAGTAEDYFDVCTDHFDWIFASQCLYWSPDLPKIIKQIHETGDSALIVIRGCHGIYEIQSQFRHYIGNHLEKFYTDKEVEMALRTQKILFQKESLSTSIRLPDKDSIELKWLILFFLQMEEESLGDKIFCEVRDWITSRTSGSIHHEVHFFWLGNAILQGITI | not soluble
4 | MSLDAHAQSYYRDCYRGAANMVRAMQKRANTLLSAGQTIADRQHKFIRSGRLRDKQPLTMTLIAQEAGLNKSTISRALSNCRIRLDSGIFPAEHFLARPLSDDTPDRTRDQVLQRLRLLIETENPRSPMSDQVLARQLGKARLSISRRTVAKYRQFLQIPGAYERKRNTEGHHHHHH | not soluble
5 | MAHHHHHHMSFCDFVVVTNNSVEIFKISFDNLIITPIKKHFIKSKHCWYDEKSSYICLLSANKSNVILPYLLSNNNVIKLSKIELNILKNDNINKNDIEIITLYNETYCIHKDFKNGRISFRCLSSTIYFDYVLDLFYNGVIETFSLDNLFGVFNHTNQYVYLFDIKYNKKKTTIHSFDDNNNHTINISYLTTPKQFKTQINFNHMAFEPYNLLIDNHYGNVYKVKVDYDVLMLQICQHFSNLVRT | soluble
6 | MSLANLFESHSPAGPLANRMRPQSLDEIVGQRHLIGESTLLRRAILADRLGTVIFYGPPGTGKTTLARVISSYTKSAFEQLNAVTAKLDQLREVLKAAESRLQFDQQKTILFLDEIHRFNKMQQDALLPALEAGTITLIGATTENPSFEVNAALLSRATVFRFETPTTEDLRVVLHRTLHDTERGLGKYPITVTEEAVDHYVKLSDGDYRALLNALELAVLTTPEIDGEITIDLSVAEESIQQKALKYDKDGDRHYDVISAFIKSIRGSDPDAALYWLAVMIEAGESPRFIVRRLYVHAAEDIGMSDPQALLIVDACARACEYIGFPEARIPLAETVLYLATAPKSNTVITAIDQALELVRRSDGGPVPPHLRDAHHAGAAALGNGVEYQYPHQFPHAYVKQNYWPENLARTKPVFYKPSPRGFEKQLQARLDFWKKQEGHHHHHH | soluble
7 | MTVWSKLLSALRGGANEVGEAIVDSQALRILDQEIRDADVELRKSREALASIMARHRLAQERVEKGAAQVAEYEQYAIKALEAGNEELAREVAEKIATLENQLEGERAQVAEFAASVAQLRKSVSQAEGNIRQLKQQVDTVKATESVQKAQMAVAQRYGNSKSKLQTAVDSLERIKQRQAERAATMDAAAELASAAAPDDALDAKLRAAGIKASGNSVDGVLARLKEKGKAAAALEHHHHHH | not soluble
8 | SENLYFQGSANAVCQRCQARFSPAERIVNSNGELYHEHCFVCAQCFRPFPEGLFYEFEGRKYCEHDFQMLFA | soluble
9 | MLKMKNNGGGCLAYISDCSVYLPVWKLKRDEISKETGMPSMGGERAVAHWDEDSITMAVEAARKFDGAFDAVIFASSSPPFRIKQCASFIASALDLPDSTFTMDITDTMRAATDALITANEFVDSGRFSRVLVVAGDKIPTKPGTLYEQLYGDAAAAVVVEKEGGAKILGYSTSTKPLPGSWMLADDDTVRDYDMRVDARYGYAASVQKAAMPLFAKLGLSPADIDRIVASAPDPKSYQGLLKAVGARPEEFYFDSVGIAGSAHPLLLLATQLEREGRILLGGYGEGADVIAVEIEQAMDSNMGRMLESRKEISYGDYLFNRGFVGVRDAPDRPSLTKFWRDEKSIIRFYGMKCKSCGTVSYPISRCCIECGAKDNYEEVRLGERGKIYTFTIDYLVMPGNYAGDGVHPHFIAVVDLDGGGRVLFELTDTLRDFSGVECDAEVERTFRLLFEKNRFRYYGWKARLPRLEHHHHHH | soluble
10 | MGSDKIHHHHHHMKRARAATNLPETRQPRSAHFAQAGQRWSDDVDASTTGVSKHDMCFAVASRESVRPYVLPRNKNDMADAEAICEAVTRPNMRFVAVKTAAQQSVLMLHRCRALLVRQRTMLANAIRAHLAEFGIVMPQGIRTLLTALIAPKDEVNDLPHLVRVALAPMAANLIELGQRIKGLEIEIAREHRGNETSRRLETIPGFGVMTSTAMAATVADPTAFKSGREFAAWLGLTPRESSSGGKQRLGGITKMGDGYLRTLLVVGATAVIRFAREEGSAKTAWIRKLMEKKPAKVVAVALANKMARIAWPLMTRGEVYRVIPA | not soluble
11 | PSKKNGRSGPQPHKRWVFTLNNPSEDERKKIRDLPISLFDYFIVGEEGNEEGRTPHLQGFANFVKKQTFNKVKWYLGARCHIEKAKGTDQQNKEYCSKEGNLLMECGAPRSQGQR | soluble
12 | GSHMEEKLAVSLQEALQEGDTRALREVLEEIHPQDLLALWDELKGEHRYVVLTLLPKAKAAEVLSHLSPEEQAEYLKTLPPWRLREILEELSLDDLADALQAVRKEDPAYFQRLKDLLDPRTRAEVEALARYEEDEAGGLMTPEYVAVREGMTVEEVLRFLRRAAPDAETIYYIYVVDEKGRLKGVLSLRDLIVADPRTRVAEIMNPKVVYVRTDTDQEEVARLMADYDFTVLPVVDEEGRLVGIVTVDDVLDVLEAEATEDIHKLGAVDVPDLVYSE | soluble
13 | GMVGINTDTENISELLKTYWSIQRISAGYADQNAASLGLTIQQLAMINVIYSTPGISVADLTKRLIITGSSAAANVDGLISLGLVVKLNKTIPNDSMDLTLKLSKKGEDLSKRSTANAFMYKAMMKVFENLTENEIEELIRLNKKVETLLKKSK | soluble
14 | MRKTFRQPHALAAMVIAMLMAQLSGCATTSAQTSPTEFGAGLPEAEDHSESAEPQSVEAEVIDERYADVWEKIQHARTIDVHDDAEVRKQRNFFDDKQKFMTQVTQRAEPFLYYIVSQLEARNMPLELALLPIVESGYNPLAQANGPAGLWQMIPATGRNFGLTINSAYDGRKDALASTDAVLDYLQHLYNTLGNDWINAVAGYNSGELVIKAAIDRNKAKGKPTDFWSLNIPARQVQTVPKWLAFIQIIREPSHYNLKVMPIANRPFLERLPAPNGVEISQIANAAGLTKAEFKTYNPGYRQSVIPSKGKYQIALPIENIGHYQENQHKLYAQKRYDSQTYIVKSGDSLGTIAAKFDLSVKELKQANNLTSDRLKIGQELTLLTPMAANDNEPEPVKTKANTDKSSTKANASSTKATSSKSTDKPVAKAKTYKVKSGDSLDKIARKSKVKLADLMKWNQLNAKSIIKPGQELKISELEHHHHHH | soluble
15 | MLRIYAPASSANISVGFDTLGAAISPIDGSLLGDVVQIESISTGFELESAGYFVRKLPKEPQKNIVYQAYVLFSEQLKLRGANVKPLRLTLEKNMPIGSGLGSSACSIVAALVALNQFHNEPFSKMELLEMMGELEGRISGSIHYDNVAPCYLGGVQFMVQS | not soluble
16 | MNTSEHEREHDHVIEVTDLRRVYGGDFEAVRGITFSVERGELFALLGTNGAGKTSTVELLEGLAAPSGGRVRVLGHDPYEERAAVRPRTGVMLQEGGFPSELTVAETVRMWAGCTSGARPVGEALSLVGLERRPDVRVKQLSGGERRRLDLALALLGRPEVLFLDEPTTGLDAEGRQETWELVRELRDGGTTVLLTTHYLEEAEGLADRLAILHEGRIATAGTPAEVTAAQPSRISFDLPDGYFLGDLPPLADLGVSTHETTGRTVRLRTHELQRTATALLLWAQRAQVELRGLDVRSASLEEAFLRIAREAAGDRPGRPGRTDVSGTTASGKEAVALEHHHHHH | soluble
17 | GPGSMAEEKIKIIVVGSVKSGKTTITNFLSGTRETATSKYYETNPLRIVETEIELDSMNFTDRRVVFSGGDAKTKRVLVQIWDLSGNSKHQAGWPAVANKADGIIFVFNPALKNGEKELSLWHKTFAVNQSELDALGNFAVRVPDKHCLVFAHHSTPPSNVAGEGLPSMPKGLEKIKVLETSLDYHSDNFKAAFDKLIESIVVARMEAEEDEVLQREGRMHF | soluble
18 | MSLNGDNQQILREIVLNPTIHGKELESIFGLSRRQLGYRIQKINLWLEQEGYPKLERTSQGNFIVSSEIMTLFKRDVSEQQMLNGNNVIFSIETRRYYLMLMLFSKENAMSLNHFSIDLQVSKNTVIHDINHVKEQLENHGLSLKYSRKHGYEIVGDEFEVRRFFIKLIDQRLNHDITKSEVLKALNLTFEDIAYQKDKIKQVEQFLKSRFIDKSLSSLPYVLCVIRRRIQSGHVMNPLNINYQYLRDTKEYQATEIMTQHEPDLPEAEKLYLTLHLLSTSVQWTDLQESDSISNLTMAIAQMIHHFEQITFINIEDKEKLSQQLLLHLTPAFYRIKYNLTDRDELINPLQGNYQSLFHMVKQSCQSLTEYFGKSLPDNEIAYLTMLFGGSLRREGHHHHHH | soluble
19 | SGGCTALVAVSLQGKLYMANAGDSRAILVRRDEIRPLSFEFTPETERQRIQQLAFVYPELLAGEFTRLEFPRRLKGDDLGQKVLFRDHHMSGWSYKRVEKSDLKYPLIHGQGRQARLLGTLAVSRGLGDHQLRVLDTNIQLKPFLLSVPQVTVLDVDQLELQEDDVVVMATDGLWDVLSNEQVAWLVRSFLPGNQEDPHRFSKLAQMLIHSTQGKEDSLTEEGQVSYDDVSVFVIPLHSQGQESSDH | soluble
20 | MGSDKIHHHHHHMKLGTQNQAFFPENIEEKFAYVKEMGFEGFEIDGKLLVENLDEVKKAIEKTGLPVSTACGGYDGWIGDFIEERRLNGLEEIKAILEALAEVGGQGIVVPAAWGMFTYRLPPMVSPRSQAGDFKAVSESLVYLDKIAGETGTKVYLEPLNRYQDHMINLLSDAQKYIDENELKNVEIIADFYHMNIEEDSIPTVLETYKDSIGHIHVADNHRYQPGSGSLDFKTSFDQLKKNGYNGFLTFECRVRSENPEQAYKDALAHLKSCLI | not soluble
